Results from US20150086555A1.

B1: TCN-530 (5248_H10a) (antibody, V domains shown)
VH: QVQLVQSGAEVRKPGSSVKVSCKASGGPFMSYAIGWVRQAPGQGLEWMGGINPVFGRPHYAQKFQGRVTIATDDSTKTSYMELSSLTSEDTGMYYCASRYSRSSPGTFESWGQGTLVTVSS
VL: EIVMTQFPATLSVSPGERVTLSCRASQSVSNNLAWYQQKPGQPPRLLIYDASTRATGVPAKFSGTGSGTEFTLSISSLQSEDFAVYYCQQYHNWPPSYSFGLGTKLEIK
B2: TCN-535 (5246_P19) (antibody, V domains shown)
VH: QVQLVQSGSEVKKPGTSVKVSCTASGSVFTNYGISWVRQAPGQGLEWMGGIIPLFGAAKYAQKFQGRVTITADESTKTVYMELSRLTSKDTAIYFCAKAPRVYEYYFDQWGQGTPVTVSS
VL: EIVLTQSPGTLSLSPGERATLSCRASQSVSSSQLAWYQQKPGQAPRLIIYGASTRATGIPDRFSGSGSGTDFTLTIGRLEPEDFAVFFCQQYSTSPPTFGQGTKVDFK
B3: TCN-534 (5249_B02) (antibody, V domains shown)
VH: QVQLVQSGAEVKKPGSSVKVSCRESGGTFNGYTITWVRQAPGQGLEWMGGIIPMMGTVNYAQKLQGRVTITTDYFTKTAYMDLNNLRSEDTAMYYCVKIRYTGQQLLWGQGTLVTVSS
VL: DIQMTQSPSTLSASIGDRVTITCRASQSIASWLAWYQQKPGKAPKLLIYEAVNLESGVPSRFSGSGSGTDFTLTISSLQPDDFATYFCQHYGTISQTFGGGTKVEIK
B4: TCN-536 (5095_N01) (antibody, V domains shown)
VH: QVQLQQWGAGLLKPSETLSLTCAVYGGSFSVSGYYWSWIRQPPGRGLEWIGEISHGGSTNYNPSLKSRVTISVDTTKNQFSLRLSSVTAADTAVYYCARGTDPDTEVYCRVGNCAAFDYWGQGSLVTVSS
VL: EIILAQSPGTLSLSPGERATLSCRASQFVSTRSLAWYQQRPGQAPRLLIYGASSRATGIPDRFSGSGSGTDFTLTISRLEPEDFAVYYCQHYGYSPRYAFGQGSKVEIK
B5: TCN-538 (3206_O17) (antibody, V domains shown)
VH: QITLKESGPTLVKPTQTLTLTCVFSGFSLSITGVRVGWIRQPPGKALEWLALISWDDEKHYSPSLQSRLTITKDTSKNQVVLTMTNLDPVDTATYYCARSTDRGHVLRYFGWMLPGDAFDVWGQGTMVTVSS
VL: DIVMTQSPDFLPVSLGERATINCKSSQRVLYSSNNKNYLAWYQLKPGQPPKLIIYWASTRESGVPDRFSGSGSGTEFTLTISSLQAEDVAVYYCQQYYSRPYTFGQGTKLEIK
B6: TCN-539 (5056_A08) (antibody, V domains shown)
VH: QVQLVESGGGVVQPGRSLRLSCAASEITFITYAMHWVRQAPGKGLEWVALISDDGSNKFYADSVKGRFTISRDNSKNTLYLQMNSLRAEDTAAYYCAREGVYFDSGTYRGYFDYWGQETLVTVSS
VL: EIVLTQSPATLSLSPGERATLSCRASQSVSSYLAWYQQKPGQAPRLLIYDASNRATGIPARFSGSGSGTDFTLTISSLEPEDFAVYYCQQRSHWPPITFGQGTRLEIK
B7: TCN-540 (5060_F05) (antibody, V domains shown)
VH: QVQLVQSGGGVVQPGRSLRLSCAASGFTFSSYAMHWVRQAPGKGLEWVAIISYDGNDQYYTDSVKGRFTISRDSSKVYLQMHRLRPEDTAVYYCAKEFETSGYFHGSFDYWGQGILVTVSS
VL: QSALTQPASVSGSPGQSITISCTGTSSDVGGYNYVSWYQQHPGKAPKLLIYEVTNWPSGVSNRFSGSKSGNTASLTISGLQAEDEADYYCSSYAGSSTWVFGGGTRVTVL
B8: TCN-543 (5081_G23) (antibody, V domains shown)
VH: QVHLVQSGAEVRKPGDSVKVSCKTSGYTFSTYPVAWVRQVPGQGLEWMGWISTYNGNTNFAQNFQGRVTLTTDTTTNTAYMEVRSLKFDDTAVYYCARVEGSYRDFWNNQNRFDPWGQGTLVTVSS
VL: SYVLTQPPSVSVAPGQTARISCGGSNIGGKSVHWYQQKPGQAPVLVVYDDSGRPSGIPERFSGSNSGDTATLTISRVEAGDEADYFCQVWDNFGGVFGTGTKVTVL
B9: TCN-546 (5089_L08) (antibody, V domains shown)
VH: QVQLQQWGAGLLKPSETLSLTCGVYGGSLSDYYWSWIRQPPGKGLEWIGEINHSGGTNYNPSLKRRVTISVDTSKKQFSLKMNSVTAADTAVYYCARGTDPDTEVYCRAGNCAAFDFWGQGTLVTVSS
VL: EIVLTQSPGTLSLSPGERATLSCRASHFVIGRAVAWYQQKPGQAPRLLIYGASSRATGIPDRFSGSGSGTDFTLTISRLETEDFAVFYCQHYGSSPRYAFGQGTKLEIK

Assays:
Settings in all cases: remark: other sources report otherwise
[1] = molecular target: T1, recombinant soluble homotrimeric HA of A/northern shoveler/California/HKWF115/07 (H6) (Influenza A virus A/northern shoveler/California/HKWF115/2007(H6N1)); test: trimeric HA microarray, transfection supernatant set 3
[2] = molecular target: T2, recombinant soluble homotrimeric HA of A/Wisconsin/67/05 (H3N2) (Influenza A virus A/Wisconsin/67/2005(H3N2)); test: as above
[3] = molecular target: T3, recombinant soluble homotrimeric HA of A/duck/Yangzhou/02/05 (H8N4) (Influenza A virus A/duck/Yangzhou/02/2005(H8N4)); test: as above
[4] = molecular target: T4, recombinant soluble homotrimeric HA of A/swine/Ontario/01911-2/99 (H4N6) (Influenza A virus A/Swine/Ontario/01911-2/99 (H4N6)); test: as above
[5] = molecular target: T5, recombinant soluble homotrimeric HA of A/Hong Kong/1073/99 (H9N2) (Influenza A virus A/Hong Kong/1073/99 (H9N2)); test: as above
[6] = molecular target: recombinant soluble homotrimeric HA of A/Solomon Islands/3/06 (H1N1) (Influenza A virus A/Solomon Islands/3/2006(H1N1)); test: trimeric HA microarray, transfection supernatant set 4
[7] = molecular target: recombinant soluble homotrimeric HA of A/Indonesia/5/05 (H5N1) (Influenza A virus A/Indonesia/5/2005(H5N1)); test: as above
[8] = molecular target: T1, recombinant soluble homotrimeric HA of …; test: as above
[9] = molecular target: T2, recombinant soluble homotrimeric HA of …; test: as above
[10] = molecular target: recombinant soluble homotrimeric HA of A/Vietnam/1203/04 (H5N1) (Influenza A virus A/VietNam/1203/2004(H5N1)); test: as above
[11] = molecular target: T3, recombinant soluble homotrimeric HA of …; test: as above
[12] = molecular target: T6, recombinant soluble homotrimeric HA of A/Japan/305/57 (H2N2) (Influenza A virus A/Japan/305/1957(H2N2)); test: as above
[13] = molecular target: recombinant soluble homotrimeric HA of A/South Carolina/1/18 (H1N1) (Influenza A virus A/South Carolina/1/18 (H1N1)); test: as above
[14] = molecular target: recombinant soluble homotrimeric HA of A/California/4/09 (H1N1) (Influenza A virus A/California/04/2009(H1N1)); test: as above
[15] = molecular target: T7, recombinant soluble homotrimeric HA of A/Anhui/1/05 (H5N1) (Influenza A virus A/Anhui/1/2005(H5N1)); test: as above
[16] = molecular target: T5, recombinant soluble homotrimeric HA of …; test: as above
[17] = molecular target: recombinant soluble homotrimeric HA of A/chicken/Vietnam/NCVD-016/08 (H5N1) (Influenza A virus A/chicken/Vietnam/NCVD-016/2008(H5N1)); test: as above
[18] = molecular target: T8, recombinant soluble homotrimeric HA of A/Egypt/3300-NAMRU3/08 (H5N1) (Influenza A virus A/Egypt/3300-NAMRU3/2008(H5N1)); test: as above
[19] = molecular target: recombinant soluble homotrimeric HA of A/Netherlands/219/03 (H7N7) (Influenza A virus A/Netherlands/219/03(H7N7)); test: as above
[20] = molecular target: T4, recombinant soluble homotrimeric HA of …; test: as above
[21] = molecular target: T1, recombinant soluble homotrimeric HA of …; test: trimeric HA microarray, transfection supernatant set 5
[22] = molecular target: T6, recombinant soluble homotrimeric HA of …; test: as above
[23] = molecular target: T8, recombinant soluble homotrimeric HA of …; test: as above
[24] = molecular target: recombinant soluble homotrimeric HA of A/Hong Kong/156/97 (H5N1) (Influenza A virus A/Hong Kong/156/97 (H5N1)); test: as above
[25] = molecular target: T7, recombinant soluble homotrimeric HA of …; test: as above

Binder | Trimeric HA Binding: RLU [8] | Trimeric HA Binding: RLU [10] | Trimeric HA Binding: RLU [11] | Trimeric HA Binding: RLU [12] | Trimeric HA Binding: RLU [13] | Trimeric HA Binding: RLU [14] | Trimeric HA Binding: RLU [15] | Trimeric HA Binding: RLU [17] | Trimeric HA Binding: RLU [18] | Trimeric HA Binding: RLU [19] | Trimeric HA Binding: RLU [21] | Trimeric HA Binding: RLU [22] | Trimeric HA Binding: RLU [23] | Trimeric HA Binding: RLU [24] | Trimeric HA Binding: RLU [25] | other results
B1 | – | – | – | – | – | – | – | – | – | – | – | – | – | – | – | Trimeric HA Binding: RLU [1]: 23500 RLU; Trimeric HA Binding: RLU [2]: 3050 RLU; Trimeric HA Binding: RLU [3]: 227 RLU; Trimeric HA Binding: RLU [4]: 123 RLU; Trimeric HA Binding: RLU [5]: 10200 RLU
B2 | 18100 RLU | 25200 RLU | 428 RLU | 21500 RLU | 22400 RLU | 25200 RLU | 24 RLU | 20900 RLU | 25300 RLU | 159 RLU | – | – | – | – | – | Trimeric HA Binding: RLU [6]: 836 RLU; Trimeric HA Binding: RLU [7]: 18200 RLU; Trimeric HA Binding: RLU [9]: 4450 RLU; Trimeric HA Binding: RLU [16]: 21200 RLU
B3 | 21300 RLU | 23700 RLU | 79 RLU | 14700 RLU | 11800 RLU | 27000 RLU | 20 RLU | 11400 RLU | 8310 RLU | 361 RLU | – | – | – | – | – | Trimeric HA Binding: RLU [6]: 60 RLU; Trimeric HA Binding: RLU [7]: 948 RLU; Trimeric HA Binding: RLU [20]: 264 RLU; Trimeric HA Binding: RLU [16]: 731 RLU
B4 | 95 RLU | 182 RLU | 48 RLU | 260 RLU | 39 RLU | 49 RLU | 18 RLU | 19 RLU | 97 RLU | 246 RLU | – | – | – | – | – | Trimeric HA Binding: RLU [9]: 20600 RLU; Trimeric HA Binding: RLU [20]: 168 RLU
B5 | – | – | – | – | – | – | – | – | – | – | 8900 RLU | 6620 RLU | 41000 RLU | 5170 RLU | – | –
B6 | – | – | – | – | – | – | – | – | – | – | 2860 RLU | 2560 RLU | – | 1450 RLU | 3240 RLU | –
B7 | – | – | – | – | – | – | – | – | – | – | 2460 RLU | 47900 RLU | 15600 RLU | 1550 RLU | 2190 RLU | –
B8 | – | – | – | – | – | – | – | – | – | – | 2510 RLU | 2780 RLU | 17600 RLU | 1430 RLU | 2630 RLU | –
B9 | – | – | – | – | – | – | – | – | – | – | 2430 RLU | 1730 RLU | 53000 RLU | 1240 RLU | 33300 RLU | –
